The results in this text go back to the supplement of paper PMC9112550, “Optimization of the antimicrobial peptide Bac7 by deep mutational scanning” (BMC Biology, 2022).

For this data set, the system named is Escherichia coli TOP10. Put plainly: shrunken log2 fold change of peptide-encoding DNA abundance (4.5 h post-induction vs induction); higher = less antimicrobial activity (less host growth inhibition). The conditions noted are these: time post-induction: 4.5 h; library: site-saturation at positions 5, 18, 19, 20.
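Also: peptides expressed intracellularly from a pBAD plasmid library in pooled LB shake-flask culture, induced with 0.3% L-arabinose, DNA abundance read by NGS, three biological replicates, DESeq2 with apeglm shrinkage.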

For the sequence RRIRERPPRLPRPRPRPIYMPRP, the “shrunken log2 fold change” value was -0.372.

For RRIRDRPPRLPRPRPRPFYKPRP, the “shrunken log2 fold change” value was -0.421.

For the sequence RRIRQRPPRLPRPRPRPMHAPRP, the “shrunken log2 fold change” value was 0.254.

Consider RRIRRRPPRLPRPRPRPFSFPRP, for which the “shrunken log2 fold change” value was -0.0665.

Regarding RRIRSRPPRLPRPRPRPLYIPRP, the “shrunken log2 fold change” value was -0.276.

As for RRIRIRPPRLPRPRPRPNKAPRP, the “shrunken log2 fold change” value was 0.0028.

Regarding RRIRLRPPRLPRPRPRPYTIPRP, the “shrunken log2 fold change” value was -0.048.

Regarding RRIRDRPPRLPRPRPRPYYIPRP, the “shrunken log2 fold change” value was -0.0955.

In the case of RRIRTRPPRLPRPRPRPAKAPRP, the “shrunken log2 fold change” value was -0.0213.

For RRIRARPPRLPRPRPRPVCYPRP, the “shrunken log2 fold change” value is -0.128.

RRIRWRPPRLPRPRPRPTHYPRP: the “shrunken log2 fold change” value is 0.0892.

With RRIRRRPPRLPRPRPRPDHKPRP, the “shrunken log2 fold change” value worked out at 0.027.

For the sequence RRIRIRPPRLPRPRPRPPNSPRP, the “shrunken log2 fold change” value amounted to 0.0359.

For RRIRRRPPRLPRPRPRPIQIPRP, the “shrunken log2 fold change” value is -0.00118.

With RRIRMRPPRLPRPRPRPWLYPRP, the “shrunken log2 fold change” value is -0.0206.

With RRIRVRPPRLPRPRPRPPVPPRP, the “shrunken log2 fold change” value was determined as 0.35.

As for RRIRYRPPRLPRPRPRPEFLPRP, the “shrunken log2 fold change” value is -0.252.

For the sequence RRIRYRPPRLPRPRPRPDNVPRP, the “shrunken log2 fold change” value was -0.0165.

RRIRFRPPRLPRPRPRPCAVPRP: the “shrunken log2 fold change” value was -0.46.

Turning to RRIRHRPPRLPRPRPRPTSWPRP, the “shrunken log2 fold change” value was 0.091.

As to RRIRGRPPRLPRPRPRPTTRPRP, the “shrunken log2 fold change” value is 0.79.

In the case of RRIRARPPRLPRPRPRPYWEPRP, the “shrunken log2 fold change” value was -0.312.

For the sequence RRIRHRPPRLPRPRPRPLNVPRP, the “shrunken log2 fold change” value is -0.588.

For the sequence RRIRERPPRLPRPRPRPNQIPRP, the “shrunken log2 fold change” value was -0.293.

Take RRIRDRPPRLPRPRPRPFENPRP: the “shrunken log2 fold change” value was 0.115.

In the case of RRIRGRPPRLPRPRPRPNIPPRP, the “shrunken log2 fold change” value is -0.251.

For the sequence RRIRKRPPRLPRPRPRPCPQPRP, the “shrunken log2 fold change” value is 0.242.

Regarding RRIRKRPPRLPRPRPRPHNDPRP, the “shrunken log2 fold change” value came to 0.00261.

As to RRIRARPPRLPRPRPRPPHTPRP, the “shrunken log2 fold change” value was 0.739.

With RRIRPRPPRLPRPRPRPYKQPRP, the “shrunken log2 fold change” value is -0.777.

Consider RRIRQRPPRLPRPRPRPRENPRP, for which the “shrunken log2 fold change” value was found to be 0.0469.

As to RRIRFRPPRLPRPRPRPTNRPRP, the “shrunken log2 fold change” value was -0.346.

For the sequence RRIRIRPPRLPRPRPRPTKWPRP, the “shrunken log2 fold change” value is -0.15.

For RRIRGRPPRLPRPRPRPRWTPRP, the “shrunken log2 fold change” value is 0.43.

On to RRIRSRPPRLPRPRPRPRCGPRP, for which the “shrunken log2 fold change” value came out at 0.34.

With RRIRARPPRLPRPRPRPCPLPRP, the “shrunken log2 fold change” value was -0.132.

Regarding RRIRMRPPRLPRPRPRPCRWPRP, the “shrunken log2 fold change” value is 0.00911.

As for RRIRHRPPRLPRPRPRPQSRPRP, the “shrunken log2 fold change” value was -0.0223.

For the sequence RRIRRRPPRLPRPRPRPRGWPRP, the “shrunken log2 fold change” value amounted to 0.979.

On to RRIRVRPPRLPRPRPRPEWLPRP, for which the “shrunken log2 fold change” value is 0.0685.

On to RRIRQRPPRLPRPRPRPDKDPRP, for which the “shrunken log2 fold change” value was -0.0597.

As to RRIRLRPPRLPRPRPRPQTHPRP, the “shrunken log2 fold change” value turned out to be 0.0338.

As to RRIRYRPPRLPRPRPRPSMEPRP, the “shrunken log2 fold change” value was -0.408.

For RRIRKRPPRLPRPRPRPQSMPRP, the “shrunken log2 fold change” value was -0.00568.

Turning to RRIRRRPPRLPRPRPRPNMFPRP, the “shrunken log2 fold change” value is -0.047.

As to RRIRVRPPRLPRPRPRPWYMPRP, the “shrunken log2 fold change” value is -0.132.

With RRIRERPPRLPRPRPRPKMIPRP, the “shrunken log2 fold change” value is -0.399.

For RRIRERPPRLPRPRPRPEYFPRP, the “shrunken log2 fold change” value is -0.0105.

Regarding RRIRARPPRLPRPRPRPYKHPRP, the “shrunken log2 fold change” value was -0.881.

Regarding RRIRRRPPRLPRPRPRPGCAPRP, the “shrunken log2 fold change” value is 0.73.

Turning to RRIRMRPPRLPRPRPRPVPEPRP, the “shrunken log2 fold change” value worked out at 1.21.

As to RRIRKRPPRLPRPRPRPPPMPRP, the “shrunken log2 fold change” value came out at 0.826.

Consider RRIRCRPPRLPRPRPRPNRWPRP, for which the “shrunken log2 fold change” value is 0.0409.

RRIRYRPPRLPRPRPRPKCGPRP: the “shrunken log2 fold change” value worked out at 0.0111.

For RRIRTRPPRLPRPRPRPHVDPRP, the “shrunken log2 fold change” value was determined as 0.0574.

As to RRIRERPPRLPRPRPRPEIIPRP, the “shrunken log2 fold change” value was 0.0655.

As for RRIRARPPRLPRPRPRPYATPRP, the “shrunken log2 fold change” value stood at 0.0217.

Regarding RRIRARPPRLPRPRPRPWYIPRP, the “shrunken log2 fold change” value was -0.257.

On to RRIRHRPPRLPRPRPRPMYVPRP, for which the “shrunken log2 fold change” value came to 0.0136.

Regarding RRIRKRPPRLPRPRPRPLLMPRP, the “shrunken log2 fold change” value was -0.109.

As for RRIRTRPPRLPRPRPRPSFHPRP, the “shrunken log2 fold change” value was -0.772.

As to RRIRSRPPRLPRPRPRPKQAPRP, the “shrunken log2 fold change” value is -0.0378.

Turning to RRIRERPPRLPRPRPRPRHYPRP, the “shrunken log2 fold change” value was -0.462.

Turning to RRIRMRPPRLPRPRPRPEEMPRP, the “shrunken log2 fold change” value was 3.07.

Consider RRIRCRPPRLPRPRPRPGDGPRP, for which the “shrunken log2 fold change” value is 0.646.

For the sequence RRIRRRPPRLPRPRPRPANFPRP, the “shrunken log2 fold change” value was -0.0416.

As for RRIRVRPPRLPRPRPRPHCKPRP, the “shrunken log2 fold change” value is -0.299.

In the case of RRIRVRPPRLPRPRPRPKSRPRP, the “shrunken log2 fold change” value was found to be 0.0366.

Consider RRIRHRPPRLPRPRPRPAIKPRP, for which the “shrunken log2 fold change” value is 0.00883.

With RRIRFRPPRLPRPRPRPQPKPRP, the “shrunken log2 fold change” value was 0.666.

For RRIRGRPPRLPRPRPRPNKCPRP, the “shrunken log2 fold change” value is 0.139.

Turning to RRIRCRPPRLPRPRPRPKRCPRP, the “shrunken log2 fold change” value was -0.00852.

As to RRIRLRPPRLPRPRPRPTPSPRP, the “shrunken log2 fold change” value turned out to be 0.552.

Take RRIRHRPPRLPRPRPRPTHYPRP: the “shrunken log2 fold change” value was -0.26.

Consider RRIRLRPPRLPRPRPRPTRAPRP, for which the “shrunken log2 fold change” value was 0.498.

For RRIRIRPPRLPRPRPRPPVHPRP, the “shrunken log2 fold change” value was -0.185.

Regarding RRIRDRPPRLPRPRPRPLFGPRP, the “shrunken log2 fold change” value came out at 0.341.

As to RRIRWRPPRLPRPRPRPWFHPRP, the “shrunken log2 fold change” value was -0.125.

As to RRIRVRPPRLPRPRPRPMDRPRP, the “shrunken log2 fold change” value is -0.308.

As for RRIRCRPPRLPRPRPRPHQPPRP, the “shrunken log2 fold change” value came to 0.0495.

Consider RRIRDRPPRLPRPRPRPVGGPRP, for which the “shrunken log2 fold change” value stood at 2.15.

As to RRIRKRPPRLPRPRPRPIQEPRP, the “shrunken log2 fold change” value stood at 0.000523.

As to RRIRKRPPRLPRPRPRPTGEPRP, the “shrunken log2 fold change” value came to 0.954.

Regarding RRIRTRPPRLPRPRPRPGWAPRP, the “shrunken log2 fold change” value turned out to be 0.622.

For RRIRGRPPRLPRPRPRPWNKPRP, the “shrunken log2 fold change” value was -0.306.

As for RRIRTRPPRLPRPRPRPPDAPRP, the “shrunken log2 fold change” value was determined as 0.232.

For the sequence RRIRRRPPRLPRPRPRPAPDPRP, the “shrunken log2 fold change” value is 1.65.

Take RRIRCRPPRLPRPRPRPNFKPRP: the “shrunken log2 fold change” value is -0.21.

RRIRMRPPRLPRPRPRPEPDPRP: the “shrunken log2 fold change” value was found to be 1.12.

For RRIRFRPPRLPRPRPRPGGQPRP, the “shrunken log2 fold change” value is 0.0786.

As for RRIRHRPPRLPRPRPRPSLVPRP, the “shrunken log2 fold change” value was -0.264.
